Kd data for one sequence are collected here from paper PMC6913123.

What is called Kd is the constant that tells how readily two partners part at equilibrium.

The data set has as its target T1, DDX21 (Homo sapiens) (UniProt Q9NR30).
T1 sequence: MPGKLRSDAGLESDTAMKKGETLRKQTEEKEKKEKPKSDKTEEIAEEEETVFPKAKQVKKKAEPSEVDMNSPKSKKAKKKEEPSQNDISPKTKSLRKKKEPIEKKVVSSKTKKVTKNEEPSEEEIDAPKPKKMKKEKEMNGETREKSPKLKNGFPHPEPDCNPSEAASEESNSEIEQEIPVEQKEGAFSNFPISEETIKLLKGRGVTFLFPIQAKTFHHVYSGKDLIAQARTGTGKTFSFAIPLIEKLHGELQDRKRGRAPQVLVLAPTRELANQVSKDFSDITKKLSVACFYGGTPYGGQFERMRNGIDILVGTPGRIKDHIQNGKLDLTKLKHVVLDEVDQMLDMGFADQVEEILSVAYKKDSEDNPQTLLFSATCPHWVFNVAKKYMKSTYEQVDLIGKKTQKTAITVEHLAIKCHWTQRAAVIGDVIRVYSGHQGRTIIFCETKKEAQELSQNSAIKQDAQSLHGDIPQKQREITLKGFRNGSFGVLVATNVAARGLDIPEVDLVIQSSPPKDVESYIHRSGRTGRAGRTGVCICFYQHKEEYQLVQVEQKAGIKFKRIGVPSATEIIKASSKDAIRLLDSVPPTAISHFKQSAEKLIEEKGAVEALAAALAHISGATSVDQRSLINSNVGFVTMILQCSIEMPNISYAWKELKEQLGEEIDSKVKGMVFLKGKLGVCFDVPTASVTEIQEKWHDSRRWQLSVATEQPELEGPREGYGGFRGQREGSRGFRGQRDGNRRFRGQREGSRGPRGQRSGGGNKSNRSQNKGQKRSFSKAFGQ
Briefly: EMSA. Background: In EMSA bound probe runs differently from free probe, usually more slowly.

Take “AGUGGCAUAAACAUGGGCUUUGGCGUCAGACAGCCCUGAGCGGGGCCCCAUUGCCCCACCCCCGAGGAAGGCGAGGGGGGGUGGCAGGGGGCUGCGGAAAGGGGCUGGGCUGGGUUGGGCUGUCUGCAGCUCUAGUCCAGGAGGCUGAGACUUCGAGAGGGACUUAGAGAAGGCAGACGCAUCCCGAACUCGCUGGAGGACAAGGCUCAGCUCUUGCCAGGCCAAAUUGAGAC [MAGED2 TV2 5'-UTR]”: the equilibrium dissociation constant (Kd) is 100 nM.
